Test results from article PMC3493562.
“And” between values parts separate entries of the source, which are not always exact repeats. Equal values may be shown once. Read-outs that look alike come from different tables or passages of the source. Blank lines part the entries; values can stand above or below the substance they belong to.

Columns and labels:
[1] = split reporter; conditions: split reporter (BiFC, NanoBiT)
[2] = SEC
[3] = biological target: amyloid β peptide (Aβ) of the TBS-soluble fraction of human Alzheimer's disease brain (human (endogenous in brain)); assay: SEC
[4] = biological target: amyloid β peptide (Aβ) of the TBS-soluble fraction of human Alzheimer's disease brain (human (endogenous in brain)); assay: SDS-PAGE and immunoblot
[5] = biological target: split-luciferase tagged Aβ; assay: split reporter
[6] = biological target: split-luciferase tagged Aβ; assay: split reporter; remark: listed apart in the source
[7] = biological target: split-luciferase tagged Aβ; assay: split reporter; remark: listed apart in the source
[8] = biological target: split-luciferase tagged Aβ; assay: SEC + split reporter

Substance: split-luciferase tagged Aβ
luminescence (%) after incubation with SEC fraction 6 of AD brain [1]: 141.8% in AD fraction 6 | luminescence (%) after incubation with SEC fraction 6 of control brain [1]: 99.8% in control fraction 6 | luminescence (%) after incubation with SEC fraction 7 of AD brain [1]: 198.4% in AD fraction 7 | luminescence (%) after incubation with SEC fraction 7 of control brain [1]: 163.2% in control fraction 7 | luminescence (%) after incubation with SEC fraction 8 of AD brain [1]: 256.4% in AD fraction 8 | luminescence (%) after incubation with SEC fraction 8 of control brain [1]: 230.8% in control fraction 8 | luminescence (%) after incubation with SEC fraction 9 of AD brain [1]: 207.6% in AD fraction 9 | luminescence (%) after incubation with SEC fraction 9 of control brain [1]: 202.6% in control fraction 9

stoichiometry N [3]: 2 and 3 | stoichiometry N [4]: 2
Substance: amyloid β peptide (Aβ) of the TBS-soluble fraction of human Alzheimer's disease brain
percent of LMW Aβ eluting in the HMW Aβ fraction after incubation without apoE [2]: 0.5 ± 0.7 without apoE

luminescence of conditioned medium (% of control) with apoE3 NTF co-expressed [5]: 114% | luminescence of conditioned medium (% of control) with apoE3 co-expressed [5]: 218% | luminescence of conditioned medium (% of control) with apoE CTF co-expressed [5]: 206% | luminescence (%) after incubation with fraction 8 of APOEε3/ε3 AD brains [6]: 168% | luminescence (%) after incubation with fraction 8 of APOEε4/ε4 AD brains [6]: 193% | luminescence of cell lysate (%) with apoA-II co-expressed [6]: 100% | luminescence of cell lysate (%) with apoE2 co-expressed [6]: 89.9% | luminescence of cell lysate (%) with apoE3 co-expressed [6]: 96.4% | luminescence of cell lysate (%) with apoE4 co-expressed [6]: 92.5% | luminescence of conditioned medium (% of control) with apoA-I co-expressed [6]: 132% | luminescence of conditioned medium (% of control) with apoA-II co-expressed [6]: 89.3% | luminescence of conditioned medium (% of control) with apoE3 co-expressed [6]: 279% | luminescence of conditioned medium (%) with apoA-II co-expressed [6]: 101% | luminescence of conditioned medium (%) with apoE3 co-expressed [6]: 229% | luminescence of conditioned medium (%) with apoE4 R61T co-expressed [6]: 228% | luminescence of conditioned medium (%) with apoE4 co-expressed [6]: 261% | luminescence of conditioned medium (% of control) with apoA-II co-expressed [7]: 91.7% | luminescence of conditioned medium (% of control) with apoE3 NTF co-expressed [7]: 113% | luminescence of conditioned medium (% of control) with apoE3 co-expressed [7]: 274% | luminescence of conditioned medium (% of control) with apoE 192-242 co-expressed [7]: 142% | luminescence of conditioned medium (% of control) with apoE 192-272 co-expressed [7]: 185% | luminescence of conditioned medium (% of control) with apoE 231-299 co-expressed [7]: 223% | luminescence of conditioned medium (% of control) with apoE 243-299 co-expressed [7]: 235% | luminescence of conditioned medium (% of control) with apoE CTF co-expressed [7]: 239% | stoichiometry N [8]: 2
Substance: split-luciferase tagged Aβ (peptide)
